Results taken from US8624002B2, “Prostaglandin E2 binding proteins and uses thereof” (AbbVie, Inc., priority 2008, dated 2014).

Key:
[1] = Biotin-PGE2 competition ELISA (prostaglandin selectivity); type: binding
Procedure: Competition enzyme linked immunosorbent assays were performed to determine prostaglandin binding specificity for antibodies that bind prostaglandin E2, according to at least one of the two following methods.
ELISA plates (Costar 3369, Corning, N.Y.) were coated with 50 μl/well of anti-host Fc IgG (Sigma, St. Louis, Mo.) at 2 μg/ml in PBS (Invitrogen, Carlsbad, Calif.). Following an overnight incubation at 4° C., the plate was blocked with 200 μl Superblock (Pierce #37535, Rockford, Ill.). The IgG samples were diluted to 6 μg/ml in Assay Buffer (10% Superblock in PBS containing 0.05% Surfactamps (Pierce #37535, Rockford, Ill.). The PGE2-biotinamide was diluted to 3 nM in Assay Buffer. A titration curve in Assay Buffer was prepared for the prostaglandins PGA2 (Cayman Chemicals, Ann Arbor, Mich.), PGD2 (Cayman Chemicals, Ann Arbor, Mich.) and PGE2 (Cayman Chemicals, Ann Arbor, Mich.) starting at 300 nM by a 1:10 serial dilution. The reagents were added to tubes at a volume of 50 μl each/tube and preincubated for 1 hour at room temperature. Following the preincubation, the mix was transferred to the blocked plates and allowed to incubate for 1 hour at room temperature. Next, the plates were washed four times with Tween 20-Tris buffered solution (TTBS). Streptavidin polyhrp40 in Assay Buffer (Fitzgerald Industries, Concord, Mass.) at a 1:5000 dilution was then added to the wells and incubated for 45 minutes at room temperature. A final wash step was performed and the plates were developed using a single step TMB system (Sigma #T8665, Sigma, St. Louis, Mo.) and 100 μl/well 2N H2SO4. Plates were read at 450 nm on a Molecular Devices Spectramax plate reader (Sunnyvale, Calif.). […] IC50 number was determined using GraphPad Prism 5 (GraphPad Software, La Jolla, Calif.). The cross reactivity index was then calculated by IC50 of PGE2/IC50 of other prostaglandin(s).

^3H-PGE2 ELISA (binding) = assay: ^3H-PGE2 ELISA (binding)
Procedure: Alternatively, prostaglandin binding was determined using a ^3H-PGE2 ELISA. Plates were coated at 50 μL/well with 5 μg/ml of goat anti-human IgG (Fc) (Thermo Scientific # 31170, Hudson, N.H.) or goat anti-mouse IgG (Fc) (Thermo Scientific # 31125, Hudson, N.H.) in PBS and incubated overnight at 4° C. The following day, plates were flicked and blotted dry. Plates were blocked with 200 μL/well of Superblock (Thermo Scientific # 37515, Hudson, N.H.) for 1 hour at room temperature. Plates were flicked and blotted dry. Monoclonal antibodies were diluted to 0.04 μg/ml in phosphate buffer solution with Tween 20 (PBST) (Abbott Bioresearch Center, Worcester, Mass.) and 10% Superblock and 50 μL of each antibody was added to each well of the pre-blocked ELISA plate at 2 ng/well and incubated for 1 hour at room temperature. Wells were washed 3 times with PBS+0.1% Tween-20. A serial 3-fold titration of ^3H-PGE2 (Perkin Elmer # NET-428, Waltham, Mass.) was prepared in PBST/10% Superblock. Fifty microliters of the ^3H-PGE2 solution was added to each well of the plate and incubated for 1 hour at room temperature. […] Plates were read using a TopCount reader (Perkin Elmer, Waltham, Mass.) with a 5 minute count delay. An EC50 number was determined using GraphPad Prism 5 (GraphPad Software, La Jolla, Calif.).

[2] = Biotin-PGE2 ELISA (PGE2-biotinamide binding to captured IgG)
Procedure: Enzyme linked immunosorbent assays to screen for antibodies that bind prostaglandin E2 were performed according to at least one of the two following methods.
ELISA plates (Costar 3369, Corning, N.Y.) were coated with 50 μl of anti-host Fc IgG (Sigma, St. Louis, Mo.) at 2 μg/ml in PBS (Invitrogen Carlsbad, Calif.). Following an overnight incubation at 4° C., washed with PBS and the plate was blocked with 200 μl Superblock (Pierce #37535, Rockford, Ill.). The IgG containing samples were diluted to 1 μg/ml in Assay Buffer (10% Superblock in PBS containing 0.05% Surfactamps (Pierce #37535, Rockford, Ill.) and 50 μl/well added to each well and incubated for 1 hour at room temperature. Plates were washed four times with Tween-Tris Buffered Solution (TTBS). […] The titration curve samples were added to each IgG sample at 50 μl/well and incubated for 1 hour at room temperature. The plates were washed as previously described and 50 μl of 1:5000 dilution of streptavidin polyhrp40 (Fitzgerald Industries, Concord, Mass.) in Assay Buffer was added to each well and incubated for 45 minutes at room temperature. A final wash step was performed and the plates were developed using a single step TMB system (Sigma #T8665, St. Louis, Mo.) and 100 μl/well 2N H2SO4. Plates were read at 450 nm on a Molecular Devices Spectramax plate reader (Sunnyvale, Calif.). EC50 was determined using GraphPad Prism 5 (GraphPad Software, La Jolla, Calif.).

B1: 2B5-8.0: recombinant anti-PGE2 antibody from solved 2B5 sequence; VH SEQ ID NO 42, VL SEQ ID NO 43 (antibody, V domains shown)
VH: QVQLQQSGPELVRPGSSVKISCKASGYTFTKYWLGWVKQRPGHGLEWIGDIYPGYDYTHYNEKFKDKATLTVDTSSSTAYMQLSSLTSEDSAIYYCARSDGSSTYWGQGTLVTVSA
VL: DVLMTQTPLSLPVSLGDQASISCTSSQNIVHSNGNTYLEWYLQRPGQSPKLLIYKVSNRFSGVPDRFSGSGSGTVFTLKISRVEAEDLGVYYCFQVSHVPYTFGGGTKLEIKR
With B1 the “PG Selectivity in Biotin-PGE2 Competition ELISA (CRI %) PGA2” value ([1]; PGA2) was 0.21%, the “PG Selectivity in Biotin-PGE2 Competition ELISA (CRI %) PGD2” value ([1]; PGD2) was <0.01% and the “PG Selectivity in Biotin-PGE2 Competition ELISA (CRI %) PGE1” value ([1]; PGE1) was 28%. For the same molecule, the EC50 (^3H-PGE2 ELISA (binding)) was 0.253 nM, the EC50 [2] was 1.03 nM and the “ability to bind PGE2 in ELISA” value [2] was “potently bound to PGE2”.
